Numbering of substitutions follows the chain as printed.

Data on three molecules can be found in US20240392262A1, “TRANSPOSASE AND USES THEREOF” (Poseida Therapeutics, Inc., published 2024).

In series [1] the target is T1, PAH1 Right TAL-PBx (synthetic construct).
T1 chain: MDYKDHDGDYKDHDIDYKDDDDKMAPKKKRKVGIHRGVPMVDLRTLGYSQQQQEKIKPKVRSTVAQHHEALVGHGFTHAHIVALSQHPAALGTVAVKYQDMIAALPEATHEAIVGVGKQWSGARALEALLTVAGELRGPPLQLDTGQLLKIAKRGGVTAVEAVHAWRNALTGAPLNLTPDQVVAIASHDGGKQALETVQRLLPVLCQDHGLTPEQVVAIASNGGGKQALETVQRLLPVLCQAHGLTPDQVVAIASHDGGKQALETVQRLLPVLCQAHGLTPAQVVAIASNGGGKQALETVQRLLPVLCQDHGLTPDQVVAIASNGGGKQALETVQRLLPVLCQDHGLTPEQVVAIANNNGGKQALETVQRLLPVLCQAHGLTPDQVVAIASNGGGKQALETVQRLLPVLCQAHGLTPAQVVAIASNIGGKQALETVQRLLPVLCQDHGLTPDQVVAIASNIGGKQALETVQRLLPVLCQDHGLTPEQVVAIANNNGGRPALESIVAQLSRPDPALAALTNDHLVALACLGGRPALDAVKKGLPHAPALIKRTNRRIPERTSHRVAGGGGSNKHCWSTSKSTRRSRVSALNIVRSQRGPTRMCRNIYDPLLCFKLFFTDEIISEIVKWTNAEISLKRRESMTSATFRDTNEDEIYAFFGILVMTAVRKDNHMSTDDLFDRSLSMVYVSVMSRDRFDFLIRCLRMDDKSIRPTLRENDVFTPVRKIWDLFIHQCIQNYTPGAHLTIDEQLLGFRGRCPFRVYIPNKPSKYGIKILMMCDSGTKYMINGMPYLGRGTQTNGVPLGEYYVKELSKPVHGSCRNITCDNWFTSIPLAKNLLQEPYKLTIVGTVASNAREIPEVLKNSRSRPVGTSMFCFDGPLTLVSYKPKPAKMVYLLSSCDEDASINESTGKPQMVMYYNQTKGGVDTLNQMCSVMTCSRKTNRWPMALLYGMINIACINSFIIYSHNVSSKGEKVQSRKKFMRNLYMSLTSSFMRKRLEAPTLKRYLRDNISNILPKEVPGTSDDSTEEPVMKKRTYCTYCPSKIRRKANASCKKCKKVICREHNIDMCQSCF
Kind of series: cell_activity; right only. Conditions: tags: 3xFlag, SV40 NLS.

The target of series [2] is T2, PAH1 Left TAL-PBx (synthetic construct).
T2 chain: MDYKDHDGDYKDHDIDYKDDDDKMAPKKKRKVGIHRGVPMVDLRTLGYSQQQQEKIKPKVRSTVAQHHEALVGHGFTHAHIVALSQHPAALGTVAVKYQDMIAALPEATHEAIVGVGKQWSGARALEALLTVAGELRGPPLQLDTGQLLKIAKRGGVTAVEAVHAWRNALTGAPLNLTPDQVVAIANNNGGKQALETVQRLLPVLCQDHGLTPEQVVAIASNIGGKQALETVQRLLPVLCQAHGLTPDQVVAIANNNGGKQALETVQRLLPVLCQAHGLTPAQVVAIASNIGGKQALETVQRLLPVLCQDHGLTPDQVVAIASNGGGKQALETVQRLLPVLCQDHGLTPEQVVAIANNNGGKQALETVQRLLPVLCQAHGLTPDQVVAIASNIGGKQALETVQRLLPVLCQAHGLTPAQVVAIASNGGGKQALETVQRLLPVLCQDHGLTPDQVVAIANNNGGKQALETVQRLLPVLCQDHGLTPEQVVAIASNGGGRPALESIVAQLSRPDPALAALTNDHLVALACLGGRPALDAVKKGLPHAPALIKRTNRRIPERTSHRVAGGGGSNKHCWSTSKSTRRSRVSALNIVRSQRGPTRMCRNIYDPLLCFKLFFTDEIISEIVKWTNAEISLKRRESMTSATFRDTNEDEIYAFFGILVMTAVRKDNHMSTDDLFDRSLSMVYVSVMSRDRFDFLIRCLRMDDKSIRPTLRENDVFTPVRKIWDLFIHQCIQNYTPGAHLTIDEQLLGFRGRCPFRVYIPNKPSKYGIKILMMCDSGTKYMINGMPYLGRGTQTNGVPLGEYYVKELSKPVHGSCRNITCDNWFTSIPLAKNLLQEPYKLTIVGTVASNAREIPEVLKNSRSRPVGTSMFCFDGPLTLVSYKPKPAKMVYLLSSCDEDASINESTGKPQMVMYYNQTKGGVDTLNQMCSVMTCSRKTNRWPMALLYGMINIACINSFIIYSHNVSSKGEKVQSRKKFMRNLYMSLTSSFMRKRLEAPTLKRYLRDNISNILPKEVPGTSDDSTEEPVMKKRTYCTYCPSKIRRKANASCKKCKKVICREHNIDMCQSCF
The series can be described thus: cell_activity; left only. Conditions: tags: 3xFlag, SV40 NLS.

In series [3] the target is T3, GFP1 Right NT-G TAL-PBx (synthetic construct).
T3 chain: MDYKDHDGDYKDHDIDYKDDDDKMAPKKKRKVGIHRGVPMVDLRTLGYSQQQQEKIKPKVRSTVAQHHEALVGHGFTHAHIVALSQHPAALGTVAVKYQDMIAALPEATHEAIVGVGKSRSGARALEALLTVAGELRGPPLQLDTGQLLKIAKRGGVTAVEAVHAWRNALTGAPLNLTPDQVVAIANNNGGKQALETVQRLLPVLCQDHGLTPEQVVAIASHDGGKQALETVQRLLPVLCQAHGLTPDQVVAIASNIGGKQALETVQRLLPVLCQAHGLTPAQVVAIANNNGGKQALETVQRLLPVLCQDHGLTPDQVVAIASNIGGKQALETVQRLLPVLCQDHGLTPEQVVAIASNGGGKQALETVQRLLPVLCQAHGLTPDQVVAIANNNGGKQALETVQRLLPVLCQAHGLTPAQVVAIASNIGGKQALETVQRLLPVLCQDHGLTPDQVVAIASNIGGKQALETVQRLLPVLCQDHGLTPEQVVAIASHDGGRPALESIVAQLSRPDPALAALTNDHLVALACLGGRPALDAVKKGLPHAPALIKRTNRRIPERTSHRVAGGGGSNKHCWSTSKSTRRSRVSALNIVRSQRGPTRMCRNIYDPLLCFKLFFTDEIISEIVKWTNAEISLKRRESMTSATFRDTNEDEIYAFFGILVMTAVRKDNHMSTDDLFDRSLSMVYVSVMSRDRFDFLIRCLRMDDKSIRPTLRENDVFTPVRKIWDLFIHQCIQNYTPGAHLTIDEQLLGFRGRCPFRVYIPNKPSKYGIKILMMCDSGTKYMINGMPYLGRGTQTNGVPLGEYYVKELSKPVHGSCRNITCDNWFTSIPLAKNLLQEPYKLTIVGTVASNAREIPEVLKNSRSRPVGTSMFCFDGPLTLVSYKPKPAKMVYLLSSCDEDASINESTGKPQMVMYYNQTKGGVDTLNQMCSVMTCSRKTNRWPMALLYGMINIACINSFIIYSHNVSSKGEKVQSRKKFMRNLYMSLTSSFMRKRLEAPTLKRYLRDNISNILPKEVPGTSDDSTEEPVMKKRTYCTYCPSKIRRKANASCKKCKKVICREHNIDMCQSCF
The series can be described thus: cell_activity. Conditions: tags: 3xFlag, SV40 NLS; chain copies: 2.

The target of series [4] is T4, GFP1 Right NT-betaN TAL-PBx (synthetic construct).
T4 chain: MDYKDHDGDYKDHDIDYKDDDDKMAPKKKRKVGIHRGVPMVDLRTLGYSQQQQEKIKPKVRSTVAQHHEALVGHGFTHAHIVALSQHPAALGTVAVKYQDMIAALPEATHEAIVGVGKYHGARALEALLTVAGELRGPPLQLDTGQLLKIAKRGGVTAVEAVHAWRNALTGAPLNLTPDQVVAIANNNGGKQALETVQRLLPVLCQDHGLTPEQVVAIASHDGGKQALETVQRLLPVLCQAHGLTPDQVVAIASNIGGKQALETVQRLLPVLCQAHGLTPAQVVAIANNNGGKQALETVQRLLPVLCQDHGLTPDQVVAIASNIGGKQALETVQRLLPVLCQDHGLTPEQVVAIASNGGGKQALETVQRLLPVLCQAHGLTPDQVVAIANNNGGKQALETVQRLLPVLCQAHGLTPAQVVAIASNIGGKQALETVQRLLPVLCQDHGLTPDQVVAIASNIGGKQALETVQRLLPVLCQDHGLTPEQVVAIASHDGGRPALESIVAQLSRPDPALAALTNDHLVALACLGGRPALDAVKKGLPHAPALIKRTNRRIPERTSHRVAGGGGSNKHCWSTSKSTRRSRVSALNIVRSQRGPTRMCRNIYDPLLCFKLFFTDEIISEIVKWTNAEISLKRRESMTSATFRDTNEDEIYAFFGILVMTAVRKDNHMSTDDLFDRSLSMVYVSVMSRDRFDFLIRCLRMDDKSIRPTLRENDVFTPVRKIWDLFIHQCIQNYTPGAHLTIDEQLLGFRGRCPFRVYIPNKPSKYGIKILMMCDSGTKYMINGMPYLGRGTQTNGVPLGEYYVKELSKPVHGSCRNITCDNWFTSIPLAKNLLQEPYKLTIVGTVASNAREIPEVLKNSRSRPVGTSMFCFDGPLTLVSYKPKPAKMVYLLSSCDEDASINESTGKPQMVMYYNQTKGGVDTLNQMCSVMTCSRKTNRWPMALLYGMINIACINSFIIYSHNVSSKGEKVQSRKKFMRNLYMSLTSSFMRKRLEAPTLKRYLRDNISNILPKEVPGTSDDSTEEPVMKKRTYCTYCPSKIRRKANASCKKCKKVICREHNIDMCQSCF
Kind of series: cell_activity. Conditions: tags: 3xFlag, SV40 NLS; chain copies: 2.

Series [5] concerns the target T5, GFP1 Right TAL-PBx (synthetic construct).
T5 chain: T3 chain with S119Q, R120W
Kind of series: cell_activity. Particulars: tags: 3xFlag, SV40 NLS; chain copies: 2.

B1: PAH1 target (dsDNA)
DNA 1: TGAGATGATGTAACATCTATTCCATTAATTTCATTAACTTGCTTACAAGAGA
DNA 2: TCTCTTGTAAGCAAGTTAATGAAATTAATGGAATAGATGTTACATCATCTCA
Consider B1, for which the activity in series [1] is 4.2 % GFP+; in series [2] it was 5.7 % GFP+.

B2: GFP1R 13 bp 5'A (dsDNA)
DNA 1: AGCAGATGAACGCAATCTCACGGCTTAACTACTGACCTGAAGTTCATCTGCT
DNA 2: AGCAGATGAACTTCAGGTCAGTAGTTAAGCCGTGAGATTGCGTTCATCTGCT
For B2, the results for the activity in series [3], in series [4] and in series [5] were 21.5 % GFP+, 23.7 % GFP+ and 11.3 % GFP+, respectively.

B3: GFP1R 13 bp 5'C (dsDNA)
DNA 1: B2 DNA 1 with A1C, T52G
DNA 2: B2 DNA 2 with A1C, T52G
In the case of B3, the activity in series [3] was 18.5 % GFP+; in series [4], 22.3 % GFP+; in series [5], 11.5 % GFP+.
